Reference: a protein production outcome set (Wang et al. 2014)

Test: label from the status in PepcDB records

For “MDCSESCHLKEPSKDRAFTHKPVVDEFKKSVHGAGHAPGATKDFHGGNRLEEETGQQNPSCRRCHSNTPYIKDANLERFKQELHHTETECGTCHQGETWRNQFSGHILRRLVGKNYDKMEANAMCVDCHGDHEAMAKVEIQDPETRERKKASFRFAHATDSYAKTLHGRLLAVNDESGASCIDCHAPDGFRHGILRDESKDSPTHPDRLGETCSQAGCHGYAKSPLNLGFLNTDLHDLDFLRMEDLSFALDFSRLDSAWYAAAWVLGPLGLIFLTSSLLSPLSRSRRAPVTEVVGYDHFQRVMIGGGSAKDGLWRRIRGRLVGGTPAVPVPAPLVEPGAPITSLTILFGSQTGNGEGVAADLEARLKAWGYSVELADMADYDPREIVNERLLFVIVSTHGEGQPPLPAEKLHGYLYAETAPRLEHLKFAVFALGDSSYKHFCKAGKDFDAFLQRLGASRVLDRVDADADFEEAAAAWIDAVLGCCRAIIGDTGIERPLEAEPVDHAVAKSGYGKTHPYPAAVLRNVNLNGEGSAKETRHIEIDLGDSGLSYEPGDALGVYPKNDPAYVEALLAALQADGYSEVTLGKETLSLREAFYKHLDITGLSRVLVEKYAELCDSRVLAGLLADPDPARLEGYLWGRQIIDLVEDFPIQGISPQTFVNVLRRLPPRLYSIASSMKAHPGQVHLTVGAVRYHAHGRNREGVCSTYLAGRIGPGERLAIFVQPNKHFRLPEDPETPLIMVGPGTGIAPFRGFVEEREVTGARGRNWLYFGDQRRATDYLYREEWEDKLRRGVLTRLDLAFSRDQERKVYVQTRMLENAREMYAWLEEGACFYVCGDASRMAQDVHRALLAIVMQEGGRTQEQAEEYLEAMAASRRYLRDVY”, which protein production is on record?
The protein production was “failed”.

Which protein production does the source give for “MDDEGLPRFAGVVYDQEEGIDALVGDFVEGLLARKLRVGGLLQGREPDAEGVTRTVVRVIGKARRIVISQNLGRHSTACSIDSAAIAEAAVALRQALEERPALIVGNRFGHLELEGAGMSEEMLDILASGTPFLIPVARRFEEGWRRFTGDMGDLLDPRPAALTAWFEALAPVTALEHHHHHH” here?
The protein production was “failed”.

Which protein production does the source give for “MDDGDTADDIMDATYRALCTHGYADLTMQDIADESDKSKAALHYHYDSKHDLLCAFLEYLYDGFVDRIEDPAGETPHERLLSLIDSVLDKPDDGSEEFGTAILEIRAHAPYEPGFRERLTKFDDYLVDELEVILEDGIADGTFKSDLDADETAQFIVTVLTGAATERVTTGRPVKCTRRMLTEYVETHLLDGQQEVTA” here?
The protein production was “not failed”.

Which protein production does the source give for “MDDISVSKSNHGNVVVLNIKASSLADTSLPSNKHESSSPPLLSVHFLQKLLAELVGTYYLIFAGCAAIAVNAQHNHVVTLVGIAVVWGIVIMVLVYCLGHLSAHFNPAVTLALASSQRFPLNQVPAYITVQVIGSTLASATLRLLFDLNNDVCSKKHDVFLGSSPSGSDLQAFVMEFIITGFLMLVVCAVTTTKRTTEELEGLIIGATVTLNVIFAGEVSGASMNPARSIGPALVWGCYKGIWIYLLAPTLGAVSGALIHKMLPSIQNAEPEFSKTGSSHKRVTDLPL” here?
The protein production was “failed”.

For “MDDVVEELLRIVVESLQYEEGNLNEAVDLAINFSTKNSIFFDQLLSLSTYCGSEGSYELAYVFAKTTANLSTGSEKAVAHHNAGTASYFLNLPMEAEEHYKLALQADPKHVNTHSNYGLLLSDMGRRDEAEQQYKLALKLDPKHVNTHYNYGILLYDMRRLDEAGEQYKLALESEPKHVKTHYNYGNLLSDMGSLDEAEEQYKLALESEPNDADIHYNYGLLLYNMESLDEAEEQYKLALESEPNDASTHSNYGILLSDMGRRDEAEEQYKLALESDPKHVNTHYNYGNLLSDMGRLDEAEEQYKLALESDPKHVKTHYNYGNLLSDMGRLDEAEEQYKLALESDPNDASIHSNYGILLSDMGRHEEAEEQYKLALETDPNDADIHYNYGNLLKRMGRLDEVEKQYILALEADPKHVNTHYNYGKLLEQMGRLDEAEKQYKIAIGIDPKMPNSHGAYGLLLFFQDLEEEAIKETEVASRLCRENGDKVKEHLSLAWLYEKFANKYYNLKDYKKSGEYAEISGDEYIEAGKQAGESFKDTSLTKGYTLKGRAKIRKLEIKTPFYKDIIKRIWNKESYEIEKFTKIINCIKDASICYEKAAKASPKDNQLCNACSISMSCLSEMLDYMFAVIKQKKTPELEDKLKNWNEKLSIAKGAYQEHSKGELFIESLYKLMGCIQNLDKYKKYGTREYGRAFEECRKELTEIANNIEGPIQKIIENVTKKMDVCRLKQLPYAGTETGYIPQPNKLSQFLKWILDPKRIGIGVFGIIITVIVNHYNEYLFSLIKRTVTMLLSKI”, which protein production is on record?
The protein production was “failed”.

With “MDELIKILHAQFGHASFRPGQREVVEDVLAGRDVLAMLPTGSGKSLCYQLPAYLLPGSVLVVSPLVSLMEDQVEQLRRRGEKRVIAFHSLLDAEEKWQALASLPDFRFIYASPEMLQSAKFLTALGRTRISLFVVDEAHCISQWGYDFRPDFLKLGTVRRALGSPPCLALTATAPPEVRDDIVRTLGMERACLHIYSVDRPNIALKVEYCLSAEEKAARLVEYARQLEGPGIVYFSSRQWAEEMARRLEQSGAGRVAYYHAGMDGEQRLLVQQQFLYGQLDIVCCTSAFGMGVNKENVRFVLHFHMPAQLEAYVQEIGRAGRDGAPSLAVLFYADGDRAIAQAVAEAELPDPHELREWCWRLPDNVAVEQWNAAIEASGFTEIQKRLLTYLLEWGQTAPPGRLTAEVKEQLYERMAAAIETRRRWKRKKLHEMDDWVHTSSCRRAMIVRAFGEELMDKPGDCCDCCGLRLDAYMRDTRRLAAAPIRHWREELWQMFFSRGRQDETAK” as the sequence, how does the protein production read?
Its protein production is “failed”.

Which protein production does the source give for “MDEQEFRKQLTLKPVEEEHIDQFNELLSYVFQVTEADIEESGFENKRAFIKSKQPILELSKVFGWFHENQLISQIAIYPCEVNIHGALYKMGGVTGVGTYPEYANHGLMKDLIQTALEEMRQDKQWISYLFPYNIPYYRRKGWEIMSDKLSFKIRDTQLPKTVPVPGMIERLAVDHPDVFDVYARFARQNHGALIRSAFNWEEYWRFENEEERTAAVYYGANQEPLGVLFYWVADEVFHIKEMFYLNQEARNGLWNFITAHFSMVYWVKGDIYKNEPLAFLLEDSQIKESIEPYYMARIVDVKAFLENFPFESTAKPFHFVVKDPVAEWNNGIFGLIWDENDQVTITDEPLGTAVHLDIQTLTCLVMNYRRPSYLHRIERIDTDKETLNSLERIFPDQEAYFSDYF” here?
The protein production was “not failed”.

Which protein production does the source give for “MDFHIRKATNSDAEAIQHVATTSWHHTYQDLIPSDVQDDFLKRFYNVETLHNRISATPFAVLEQADKVIGFANFIELEKGKSELAAFYLLPEVTQRGLGTELLEVGMTLFHVPLPMFVNVEKGNETAIHFYKAKGFVQVEEFTEDFYGYPLETIRFNLNHHAFEEE” here?
The protein production was “not failed”.

Which protein production does the source give for “MDFHTDTIILLAGLLFIVGVITAKFSTRLGVPALVLFILVGMLVGSDGLGLIHFDFSQAHFAQLIGIFALVIILFEGGLQTKWKTVQSVAVPSLSLATFGVLITSTLVAVAAKYVLGVSWLEAYLFGAIVGSTDAAAVFAVLKEQNIKDRLATTLEAESGTNDPMAVFLTLSLIELITIGSMNPLHLFGSFLWQMGAGLILGFGLGKLGSYSINKINLDSSGLYPVFALAFALLTYSVTAMIGASGLLAVYVAALVIGNQDLTYRHSIFRFNEGFAWMMQMLMFIILGLLVFPNQLFEASIFIKGILLSLILMLVARPVAVFLTTIKMRFDWKEKLFLSWAGLRGAVPIVLATFPMTAGLENSPLFFNVVFFVVLTSALIQGSTIAHFANKLQLTGPQKTTPLHSLELVSIGKANAEIVELEMKQDTPVIGKTLEEINLPKDVLVNAIIRDEQLITPYGKTTIQADDILYVLVSKKKKRQLKELFQAKES” here?
The protein production was “failed”.

With “MDGALRNRSARVVDSEHRTHPPGIRRSVCWSLLALDSRLHGRTSTQDRQVGCGRLWCRPSEARCGAMKLLVTGGGGFLGQALCRGLRARGHEVVSFQRGNYPVLRSLGVGQIRGDLADPQAVRHALAGIDAVFHNAAKAGAWGSYDSYHQANVVGTQNVIEACRATGVPRLIYTSTPSVTHRATNPVEGLGADEVPYGDNLRAAYAATKAIAERAVLAANDAQLATVALRPRLIWGPGDNHLLPRLAARARAGRLRMVGDGSNLVDSTYIDNAAQAHFDAFEHLAVGAACAGKAYFISNGEPLPMRELLNRLLAAVDAPAVTRSLPFKTAYRIGAVCETLWPLLRLPGEVPLTRFLVEQLCTPHWYSMQPARRDFGYVPRISIEEGLQRLRSSSSNDIAITG” as the sequence, how does the protein production read?
The protein production was “failed”.

For “MDGFVQWMEKHFMPKASVIAAQRHLVAIRDAFVVTMPLMILGALAVLINNIPIPGYEDFLNKIFPMMYNDAPIWKSFGGNIWNGTFAIFAVLVAFLVAHNLVKSYGKDGIAAGTVSVASFFAVGGLEGMGATGLFIALIIALISGELFQRLSGNPKLVIKMPDGVPPAVAKSFAALLPAMITISLFSLITSILFALGIDNIVISFYEAVQQPFMGLANSYPSALLLAFITPFLWFFGLHGANMVDPLMQTINVPAIDANIKALEAGKAIPYIVNKPFFDSFVNLGGTGATLGLLIAIFIVGRRNKPYKVITNLSLAPGLFNINEPVMFGLPIVLNPIMFIPFILVPMVLVTVAYVATATGLVPAATFMPPWVTPPIIGGFLATKSIAGGVLAAVNLLISILIYMPFVKVATDQYLKQEAAAEAAE”, which protein production is on record?
Its protein production is “failed”.

For “MDGKRVWLSDDELTRFIEQAETPHQRLAFLLAGRVGLRRSEIIEVCPQDLVDGPTGDHIRVWESYAKRDKYREPPVPQEVVTIAETLAYQQDDDEPLLDVAGSTVYRWVRRAADELEEETGDRGWQYLDVHDLRRTWGTYLLEQGVIPSVVMSFGGWEDWDTFRKHYLGEFSLEHHHHHH”, which protein production is on record?
The protein production was “not failed”.

With “MDGSIRVSAKTVDDAITEALIQLGVTSDRLEYEVIEKGSSGFLGIGMKQAVIEARRKPEPVAEVKEETIPVEEVKPSVVKEQVSEPVQEKQEEKAEEEPARKKATELAEVSDEAIKAVEAFLNDTLKAMDMDVEIVSEVDSEGALSVEMKGSNMGILIGKRGQTLDALQYLANRVANKHQDGYVRVKLDTENYRARREETLRHLAKNIAFKVKRTRRAVSLEPMNPYERRIIHAALQSDPHVTTHSEGEEPYRKVVVTLKR” as the sequence, how does the protein production read?
The protein production was “failed”.

For “MDGTPGHNAINRLQLVATLAEREVMRYTPAGVPIVNCLLSYSGQAMEAQAARQVEFSIEALGAGKMASVLDRIAPGTVLECVGFLARKHRSSKALVFHISGCNVFVKDLEHHHHHH”, which protein production is on record?
Its protein production is “failed”.

With “MDGVGAHAHTGELRSAQALRSASLWLWPLLCWALLAGWPLGAHPLKHTAYHTVTRWDMDDGLPHNLVHAVAQGSDGVIWLGTWEGVARFNGRDFTVFDRQNTPGVELGGVFVVVRDGDGMLFGTAFDGVYRHQDGRWQQLGDASARHLAVSALLRRADGALWVGTPQTLYRIELDGRVVDVGRQAGLPRARITALSTDARGDLWIGTDVGLYQLPLGASAATAWGQAHGMADTPVRRLASDRQGGLLVAGDDGVWWWSRGGGLQRFRQGQRVDSLVMDRSGHLWMSLSAGTLVVHSGPDDPDEQIAISGVASPALLEDAEGLIWVGSTHGLFRVAEGAAHGVTIDDGLASDYVRSVLQTADGTVWVGSAVGLDRWRDGQIARVPFSRGSAGRVLEQSVLALADAGDGGVWAGTYSQGVLRLDAQGAVVQRIGAAEGLSSLSVRAVLPDGDALWIGTTAGLVRWHDGRARRYTAADGVPDGSVQVLYRDAQGTIWSGTDRGMTALSPDGGTRAWLGEQDFPGQNAFDFLRDPSGDLWIASDRGLLRLRGERFQVYDHRVGLPRDKVFRVIDDGRGYLWLSSNHGVFRIARRDFDQIDAGTREQLSVEVVDRSDGMPGNQGNGSSAPAGWLTQTGQLLFPTAAGLGVIDPARVGTLQGHRVPIVIERLVVDGMVQPLDGPHRLSADTRRIAIGYAGLNFRGPDKVRYRYRLDGFDPDWVDADSATEAVYTNLPPGRFRFRVQAMSLPVDWRQAALLGETSVVLELAPPWWRRGEVIGLGVLCLASVIYGFYLWRTASYRRRQRELNVVIDKRTRELSDKNLALQQASQEREALMRQLEYRASHDVLTALPNRREAERVLQQWLDEAQAGGAPLALALADIDHFKRINDAHGHEVGDAVLRAVGEVLADQEHAHCFAARHGGEEFLLAVTGLEAAHARALFEQQRQRLGTIAIAADEATVQCTASMGMAMSNEAHSRRELLALADRRLYHAKRQGRDRLIDQ” as the sequence, how does the protein production read?
The protein production was “failed”.
